Assay results taken from patent publication US20250019450A1.

What was measured:
[1] = biological target: human IL-12Rβ2-huFc-his (R&D system), biotinylated (human) (UniProt Q99665); test: ELISA, periplasmic extract
[2] = biological target: human IL-12RB2 with C-terminal HA tag, transiently expressed on HEK-293T cells (human) (UniProt Q99665); test: FACS, periplasmic extract, HEK-293T
[3] = biological target: cyno IL-12RB2 with C-terminal HA tag, transiently expressed on HEK-293T cells (cyno); test: FACS, periplasmic extract, HEK-293T
Sequence of cyno IL-12RB2 with C-terminal HA tag, transiently expressed on HEK-293T cells (cyno) (chain, as listed by the source): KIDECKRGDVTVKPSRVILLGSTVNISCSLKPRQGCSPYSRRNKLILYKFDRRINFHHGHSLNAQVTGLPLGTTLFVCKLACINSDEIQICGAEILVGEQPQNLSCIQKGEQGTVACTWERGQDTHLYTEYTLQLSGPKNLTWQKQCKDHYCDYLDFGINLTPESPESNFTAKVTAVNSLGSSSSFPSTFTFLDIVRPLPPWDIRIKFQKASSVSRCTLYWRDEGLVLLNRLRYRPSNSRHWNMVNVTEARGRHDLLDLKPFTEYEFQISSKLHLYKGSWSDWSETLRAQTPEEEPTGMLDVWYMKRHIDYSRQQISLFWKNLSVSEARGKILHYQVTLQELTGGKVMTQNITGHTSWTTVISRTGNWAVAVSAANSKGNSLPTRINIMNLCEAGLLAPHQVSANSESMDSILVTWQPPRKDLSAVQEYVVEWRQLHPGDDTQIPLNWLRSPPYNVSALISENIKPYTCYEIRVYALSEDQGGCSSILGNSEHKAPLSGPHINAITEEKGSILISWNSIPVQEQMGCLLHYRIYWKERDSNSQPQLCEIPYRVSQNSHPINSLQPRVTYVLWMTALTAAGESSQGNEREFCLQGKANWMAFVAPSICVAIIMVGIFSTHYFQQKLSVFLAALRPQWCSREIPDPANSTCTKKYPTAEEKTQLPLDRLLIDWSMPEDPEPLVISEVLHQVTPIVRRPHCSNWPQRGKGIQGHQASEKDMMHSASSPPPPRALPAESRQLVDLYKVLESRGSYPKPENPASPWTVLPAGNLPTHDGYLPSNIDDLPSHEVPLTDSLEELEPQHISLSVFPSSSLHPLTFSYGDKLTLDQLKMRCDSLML

Sequence of human IL-12Rβ2-huFc-his (R&D system), biotinylated (human) (Q99665 24-622 limits assumed): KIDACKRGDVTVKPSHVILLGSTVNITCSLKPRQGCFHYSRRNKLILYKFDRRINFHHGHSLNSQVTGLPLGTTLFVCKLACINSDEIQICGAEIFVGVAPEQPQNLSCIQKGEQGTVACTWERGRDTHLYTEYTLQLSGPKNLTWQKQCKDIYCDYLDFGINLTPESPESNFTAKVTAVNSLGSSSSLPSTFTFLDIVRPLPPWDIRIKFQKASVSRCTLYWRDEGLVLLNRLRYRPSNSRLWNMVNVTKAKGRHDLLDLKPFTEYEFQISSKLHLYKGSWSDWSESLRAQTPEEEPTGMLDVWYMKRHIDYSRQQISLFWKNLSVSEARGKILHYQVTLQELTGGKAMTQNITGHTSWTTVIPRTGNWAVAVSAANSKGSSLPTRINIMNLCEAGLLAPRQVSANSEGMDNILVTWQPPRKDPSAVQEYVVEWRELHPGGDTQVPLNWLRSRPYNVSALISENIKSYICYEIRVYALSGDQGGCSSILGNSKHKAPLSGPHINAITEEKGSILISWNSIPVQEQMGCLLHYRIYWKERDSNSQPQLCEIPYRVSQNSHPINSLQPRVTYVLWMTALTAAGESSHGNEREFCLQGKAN
Sequence of human IL-12RB2 with C-terminal HA tag, transiently expressed on HEK-293T cells (human) (Q99665 24-862): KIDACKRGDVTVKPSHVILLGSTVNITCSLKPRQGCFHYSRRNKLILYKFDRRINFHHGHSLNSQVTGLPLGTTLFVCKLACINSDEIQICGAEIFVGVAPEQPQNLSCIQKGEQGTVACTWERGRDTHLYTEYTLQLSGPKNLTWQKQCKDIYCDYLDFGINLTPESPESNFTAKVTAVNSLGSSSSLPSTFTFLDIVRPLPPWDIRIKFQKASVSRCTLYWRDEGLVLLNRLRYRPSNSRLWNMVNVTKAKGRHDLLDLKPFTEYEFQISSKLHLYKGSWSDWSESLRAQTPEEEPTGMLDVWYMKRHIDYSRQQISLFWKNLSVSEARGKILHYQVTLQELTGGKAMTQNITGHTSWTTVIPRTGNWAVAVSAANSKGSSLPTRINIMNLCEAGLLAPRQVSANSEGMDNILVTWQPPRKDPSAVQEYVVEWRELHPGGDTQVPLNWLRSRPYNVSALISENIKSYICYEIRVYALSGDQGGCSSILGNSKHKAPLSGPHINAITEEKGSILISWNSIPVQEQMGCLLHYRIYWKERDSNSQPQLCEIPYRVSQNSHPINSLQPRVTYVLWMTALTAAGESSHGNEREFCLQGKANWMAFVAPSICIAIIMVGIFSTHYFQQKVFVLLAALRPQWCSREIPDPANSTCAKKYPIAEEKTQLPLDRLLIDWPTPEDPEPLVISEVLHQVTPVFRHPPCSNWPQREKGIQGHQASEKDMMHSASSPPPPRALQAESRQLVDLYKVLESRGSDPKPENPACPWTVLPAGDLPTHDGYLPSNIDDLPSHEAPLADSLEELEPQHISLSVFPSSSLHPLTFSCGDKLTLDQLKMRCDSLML

OD450 nm [1] | FOB [2] | FOB [3] | Binder
0.227 | – | – | VHH211B2 (VHH) VHH: QVQLVESGGGLVQAGNSLRLSCAASGRTFSSYVVGWFRQAPGKEREFVGRISWSGARTYYADSVKGRFTISRDNAKNTVYLQMNSLKPEDTAVYYCAADLKWEVLLSEHFEYWGQGTQVTVSS
– | 1.54 fold | – | VHH219B2 (VHH) VHH: QVQLEESGGGLVQAGGSLRLSCAASGRTFSSYVVGWFRQAPGKEREFVGRISWSGARTYYADSVEGRFTISRDNAKNTVYLQMNSLKPEDTAVYYCAADLKWEVLLSEHYEYWGQGTQVTVSS
0.586 | 0.99 fold | – | VHH216B2 (VHH) VHH: QVQLVESGGGLVQPGGSLRLSCATSEHTFGTYRMGWFRQAPGKEREFVAGISWTGQTTYYAASVKGRFAISKDNAKNTVYLQMNTLKSDDTAVYYCAVETNNLGRWDRPSEYDYWGQGTQVTVSS
0.139 | 1.63 fold | – | VHH241B2 (VHH) VHH: QVQLVESGGGLVQLGDSLRLSCAASGRGFSSWTMAWFRQALGKRREFVAAITATGARTCSAESEGRFTISRDNAKNMVFLQMNSLKAEDTAVYYCAATGIASWDPGMADKYTYWGQGTQVTVSS
0.137 | – | – | VHH277B2 (VHH) VHH: QVQLVESGGGLVQLGDSLRLSCAASGRGFSSWTMAWFRQALGKRREFVAAITATGARTCSAESEGRFTISRDNAKNMVFLQMNSLKAEDTAVYYCAATEIAGWDPGMGDKYPYWGQGTQVTVSS
– | 1.98 fold | – | VHH93B2 (VHH) VHH: QVQLVESGGGLVQPGGSLRLSCAASGFTFEPYDMSWFRQAPGKGPEWVSAIDKGGGAGATYYADSVKGRFTISRDNAKKTLYLQMKSLKPEDTAVYYCAITAGPYSDSTPRVAYRGEGTQVTVSS
– | – | 2 fold | VHH356B2 (VHH) VHH: QLQLVESGGGLVQPGGSLRLSCAASGSIFSINAMGWYRQAPGKQRELVAAITSGGSTAYADSVKGRFTISRDNAKNTVYLQMNSLKPEDTAVYYCNADRDPITSWYVRGDYWGQGTQVTVSS
0.138 | – | – | VHH229B2 (VHH) VHH: QVQLVESGGGLVQAGGSLRLSCAASGRTFSSYAMGWFRQAPGKEREFVSAISWNGGSRYYVESVEGRFTISRDNAKNTVYLQMNSLKPEDTAVYYCAASRIYTNYVARSYEYDDWGQGTQVTVSS
– | – | 1.66 fold | VHH230B2 (VHH) VHH: QVQLVESGGGLVQAGGSLRLSCAASGRTFSSYAMGWFRQAPGKEREFVSAISWSGLSTYYVESVQGRFTISRDNAKNTVYLQMNSLKPEDTAVYYCAASRIYTNYVARSYEYDDWGQGTQVTVSS
